Results as given in patent US12139520B2 (priority 2020, dated 2024).
Bridge positions count the residues as written; N and C are the ends. Square brackets hold non-standard residues; d marks the D form. Ends that are not written are not given here. Hyp = O=C(O)[C@@H]1C[C@@H](O)CN1; Cit = NC(=O)NCCC[C@H](N)C(=O)O

T1: hAMY3R (human, UniProt P30988)
T1 sequence 1: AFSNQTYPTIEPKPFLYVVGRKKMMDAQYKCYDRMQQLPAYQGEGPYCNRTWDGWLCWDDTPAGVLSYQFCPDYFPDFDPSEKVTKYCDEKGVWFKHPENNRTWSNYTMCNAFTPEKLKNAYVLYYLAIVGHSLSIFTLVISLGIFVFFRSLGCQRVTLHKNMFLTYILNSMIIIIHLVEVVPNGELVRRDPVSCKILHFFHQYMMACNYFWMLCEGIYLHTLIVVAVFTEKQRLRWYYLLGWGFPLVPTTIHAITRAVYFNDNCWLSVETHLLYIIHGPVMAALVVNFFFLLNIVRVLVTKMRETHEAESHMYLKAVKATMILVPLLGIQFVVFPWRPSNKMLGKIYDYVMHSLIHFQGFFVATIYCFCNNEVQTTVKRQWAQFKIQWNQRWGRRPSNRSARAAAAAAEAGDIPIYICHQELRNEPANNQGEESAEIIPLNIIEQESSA
T1 sequence 2: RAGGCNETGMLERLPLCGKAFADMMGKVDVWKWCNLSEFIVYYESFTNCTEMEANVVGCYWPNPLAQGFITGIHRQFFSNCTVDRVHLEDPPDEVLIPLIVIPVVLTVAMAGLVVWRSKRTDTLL


Experiments:
hAM1R = hAM1R (human, UniProt Q16602); assay: cell-based or functional assay
hAMY3R = molecular target: T1, hAMY3R; assay: cell-based or functional assay

| Binder | hAM1R EC50 (cAMP) (hAM1R) [nM] | hAMY3R EC50 (cAMP) (hAMY3R) [nM] |
| --- | --- | --- |
| GCRFGTCTVQ[Cit]LAHQIYQFTDKDKDNVAPRTKVGPQG[Hyp]-NH2 (disulfide 2-7 (inferred); ends not checked) [SEQ ID NO: 259] | 4320 | 0.013 |
| KCNTATCTVQ[Cit]LAHQIYQFTDKDKDNVAPTNVGSNG[Hyp]-NH2 (disulfide 2-7 (inferred); ends not checked) [SEQ ID NO: 255] | > 5000 | 0.007 |
| KCNTATCTVQ[Cit]LAHQIYQFTDKDKDNVAAPTNVGSNG[Hyp]-NH2 (disulfide 2-7 (inferred); ends not checked) [SEQ ID NO: 262] | > 5000 | 0.014 |
| KCNTATCTVQRLAHQIYQFTDKDKDNVAPATNVGSNG[Hyp]-NH2 (disulfide 2-7 (inferred); ends not checked) [SEQ ID NO: 28] | > 5000 | 0.008 |
| GCRFGTCTVQ[Cit]LAHFLYQFTDKDKDNVAPRTNVGPQGY-NH2 (disulfide 2-7 (inferred); ends not checked) [SEQ ID NO: 263] | 1280 | 0.005 |
| KCNTATCTVQ[Cit]LAHQIYQFDKDKDNVAPPTNVGSNG[Hyp]-NH2 (disulfide 2-7 (inferred); ends not checked) [SEQ ID NO: 265] | > 5000 | 0.03 |
| KCNTATCTVQ[Cit]LAHQIYQFTDKDKDNVPPTNVGSNG[Hyp]-NH2 (disulfide 2-7 (inferred); ends not checked) [SEQ ID NO: 254] | > 5000 | 0.006 |
| KCNTATCTVQRLAHQIYQFTDKDKDNAAPPTNVGSNG[Hyp]-NH2 (disulfide 2-7 (inferred); ends not checked) [SEQ ID NO: 27] | > 5000 | 0.008 |
| KCNTATCTVQ[Cit]LAHQIYQFTDKAKDNVAPPTNVGSNG[Hyp]-NH2 (disulfide 2-7 (inferred); ends not checked) [SEQ ID NO: 258] | > 5000 | 0.01 |
| KCNTATCTVQ[Cit]LAHQIYQFTDKDKDNVAPRTKVGSNGY-NH2 (disulfide 2-7 (inferred); ends not checked) [SEQ ID NO: 257] | 2040 | 0.016 |
| GCRFGTCTVQ[Cit]LAHQIYQFTDKDKDNVAPRTNIGPQG[Hyp]-NH2 (disulfide 2-7 (inferred); ends not checked) [SEQ ID NO: 260] | 4160 | 0.011 |
| GCRTGTCTVQ[Cit]LAHQIYQFTDKDKDNVAPRTNVGPQG[Hyp]-NH2 (disulfide 2-7 (inferred); ends not checked) [SEQ ID NO: 261] | > 5000 | 0.018 |
| KCNTATCTVQ[Cit]LAEQIYQFTDKDKDNVSPPTNVGSNG[Hyp]-NH2 (disulfide 2-7 (inferred); ends not checked) [SEQ ID NO: 266] | > 5000 | 0.053 |
| GCRFGTCTVQ[Cit]LAHFLYQFTDKDKDNVAPRTNVGSNTY-NH2 (disulfide 2-7 (inferred); ends not checked) [SEQ ID NO: 264] | 3470 | 0.006 |
| KCNTATCTVQRLAHQIYQFTDKDKANVAPPTNVGSNG[Hyp]-NH2 (disulfide 2-7 (inferred); ends not checked) [SEQ ID NO: 26] | > 5000 | 0.008 |
| RCQTSTCTVA[Cit]LAEQIAQYTDKDKDQVAPPTNVGSNS[Hyp]-NH2 (disulfide 2-7 (inferred); ends not checked) [SEQ ID NO: 256] | > 5000 | 0.007 |

More lines, now with the values ahead:

| hAM1R EC50 (cAMP) (hAM1R) [nM] | hAMY3R EC50 (cAMP) (hAMY3R) [nM] | Binder |
| --- | --- | --- |
| 877 | 0.019 | GCRFGTCTVQ[Cit]LAHQIYQFTDKDKDNVAPRTKIGPQG[Hyp]-NH2 (disulfide 2-7 (inferred); ends not checked) [SEQ ID NO: 274] |
| > 5000 | 0.009 | KCNTATCTVQ[Cit]LAHQIYQFTDKDKDNVAPRTEVGSNGY-NH2 (disulfide 2-7 (inferred); ends not checked) [SEQ ID NO: 272] |
| > 5000 | 0.058 | GCRTGTCTVQ[Cit]LAHQIYQFTDKDKDNVAPRTKIGPNG[Hyp]-NH2 (disulfide 2-7 (inferred); ends not checked) [SEQ ID NO: 277] |
| > 5000 | 0.005 | GCRTGTCTVQ[Cit]LAHQIYQFTDKDKDNVAPRTNVGPNGY-NH2 (disulfide 2-7 (inferred); ends not checked) [SEQ ID NO: 269] |
| > 5000 | 0.034 | GCRTGTCTVQ[Cit]LAHQIYQFTDKDKDNVAPRSNVGPQG[Hyp]-NH2 (disulfide 2-7 (inferred); ends not checked) [SEQ ID NO: 281] |
| 155 | 0.011 | GCRFGTCTVQ[Cit]LAHQIYQFTDKDKDNVAPRTNVSPQGY-NH2 (disulfide 2-7 (inferred); ends not checked) [SEQ ID NO: 278] |
| 96.6 | 0.01 | GCRFGTCTVQ[Cit]LAHQIYQFTDKDKDNVAPRTNVSPNGY-NH2 (disulfide 2-7 (inferred); ends not checked) [SEQ ID NO: 271] |
| > 5000 | 0.014 | KCNTATCTVQ[Cit]LAHQIYQFTDKDKDNVAPPTNVGSNG[Hyp]-NH2 (disulfide 2-7 (inferred); ends not checked) [SEQ ID NO: 268] |
| 1880 | 0.003 | GCRFGTCTVQ[Cit]LAHQIYQFTDKDKDNVAPRTNVGPNG[Hyp]-NH2 (disulfide 2-7 (inferred); ends not checked) [SEQ ID NO: 270] |
| > 5000 | 0.024 | GCRTGTCTVQ[Cit]LAHQIYQFTDKDKDNVAPRTNIGPQG[Hyp]-NH2 (disulfide 2-7 (inferred); ends not checked) [SEQ ID NO: 280] |
| > 5000 | 0.02 | GCRFGTCTVQ[Cit]LAHQIYQFTDKDKDNVAPRTKISPNG[Hyp]-NH2 (disulfide 2-7 (inferred); ends not checked) [SEQ ID NO: 275] |
| 241 | 0.013 | GCRFGTCTVQ[Cit]LAHFLYQFTDKDKDNVAPRTKVGSNGY-NH2 (disulfide 2-7 (inferred); ends not checked) [SEQ ID NO: 279] |
| > 5000 | 0.021 | GCRTGTCTVQ[Cit]LAHQIYQFTDKDKDNVAPRTNVGPQGY-NH2 (disulfide 2-7 (inferred); ends not checked) [SEQ ID NO: 273] |
| > 5000 | 0.056 | KCNTATCTVQ[Cit]LAHQIYQATDKDKDNVAPPTNVGSNG[Hyp]-NH2 (disulfide 2-7 (inferred); ends not checked) [SEQ ID NO: 276] |
| 3880 | 0.143 | GCRFGTCTVQ[Cit]LAHFLYQFTDKDGAIAPRTKIGSQGY-NH2 (disulfide 2-7 (inferred); ends not checked) [SEQ ID NO: 282] |
| 2490 | 0.007 | GCRFGTCTVQ[Cit]LAHQIYQFTDKDKDNVAPRTNVGPQG[Hyp]-NH2 (disulfide 2-7 (inferred); ends not checked) [SEQ ID NO: 267] |
